According to publication PMC11531485, “Examining prestructured β-actin peptides as substrates of histidine methyltransferase SETD3” (Scientific Reports, 2024):
Positions of bridges follow the written chain, without caps; N, C: chain ends. No end group written: not given here.

How the values were obtained:
[1] = molecular target: T1, human SETD3 histidine methyltransferase (human, UniProt Q86TU7 1-594); experiment: cell-based or functional assay
T1 sequence (looked up): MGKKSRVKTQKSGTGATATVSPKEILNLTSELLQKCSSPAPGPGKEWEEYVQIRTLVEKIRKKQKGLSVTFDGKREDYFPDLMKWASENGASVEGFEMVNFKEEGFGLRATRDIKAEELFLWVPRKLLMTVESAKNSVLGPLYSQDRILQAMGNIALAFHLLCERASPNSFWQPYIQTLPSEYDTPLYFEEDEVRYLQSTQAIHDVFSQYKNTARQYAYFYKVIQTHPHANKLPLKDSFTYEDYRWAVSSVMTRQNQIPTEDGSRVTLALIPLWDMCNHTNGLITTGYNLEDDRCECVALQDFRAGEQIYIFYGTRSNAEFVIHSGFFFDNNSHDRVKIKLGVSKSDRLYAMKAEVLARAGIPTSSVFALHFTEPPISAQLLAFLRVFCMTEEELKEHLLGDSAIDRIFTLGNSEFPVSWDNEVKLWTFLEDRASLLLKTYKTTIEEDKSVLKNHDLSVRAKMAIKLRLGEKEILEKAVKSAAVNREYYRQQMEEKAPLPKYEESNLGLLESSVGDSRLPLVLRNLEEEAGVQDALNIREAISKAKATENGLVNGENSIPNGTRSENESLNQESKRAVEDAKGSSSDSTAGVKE

[2] = molecular target: T1, human SETD3 histidine methyltransferase; experiment: ITC; βA peptides (700-850 µM) titrated into SETD3 (30 µM) preincubated with SAH (350 µM) for 1 h; 20 mM Tris, 200 mM NaCl, pH 8.0; MicroCal PEAQ-ITC; One Set of Sites model; settings: both partners purified
[3] = molecular target: T1, human SETD3 histidine methyltransferase; experiment: cell-based or functional assay; remark: listed apart in the source

Binder	kcat of SETD3-catalysed methylation, MALDI-TOF MS steady-state kinetics (200 nM SETD3, 100 µM SAM, pH 9.0, 37 °C) [1] [min^-1]	kcat/Km of SETD3-catalysed methylation, MALDI-TOF MS steady-state kinetics (200 nM SETD3, 100 µM SAM, pH 9.0, 37 °C) [1] [µM^-1min^-1]	Kd [2] [µM]	IC50 of inhibition of SETD3-catalysed methylation of the βA-H73 peptide, MALDI-TOF MS single point assay (10 and 100 µM peptide, 360 nM SETD3, 100 µM SAM) [3] [µM]
TLKYPIEHGIVTNWDD-NH2 [linear β-actin peptide (βA-H73, natural sequence)]	148	5.78	2.46	
TLKYPIEHGKVTNWDD-NH2 (lactam 7-10) [stapled βA peptide 9 (cyclic lactam, Glu72-Lys75)]			24	> 100
